Test results: the supplement of paper PMC12042874
± gives the uncertainty stated by the source.

Test: amyloid nucleation score (Sup35N fusion, yeast selection) (log enrichment); library NNK1; higher = more nucleation; inactive = no reads after selection
Outline: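 Peptides of 20 random codons fused to Sup35N were expressed in psi-negative yeast, induced 24 hours with 100 μM copper sulfate, then grown 7 days at 30°C on medium lacking adenine and uracil. Input and output plasmid inserts were Illumina-sequenced. Nucleation score is the DiMSum log enrichment of output over input reads, centred on the mode score of non-aggregating sequences, excluding sequences with under 100 input reads. Random libraries had three technical output replicates.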

Row | Substance | amyloid nucleation score
1 | LNQRWCCFTISALR | 7.702 ± 0.076
2 | LNRFLYDSCLFSCYFGYMVA | -0.017 ± 0.25
3 | LNTGCDANQILAVCSRGVGV | 0.793 ± 0.43
4 | LPCHLPRLVPKGYPSFTLYK | -0.672 ± 0.4
5 | LPDTCCR | 0.994 ± 0.46
6 | LPFGGAWVSLCLLRVICILR | inactive
7 | LPLGYRLLAQPCPESSRTPA | 0.001 ± 0.53
8 | LPRNYTLLMPAVYIYVLVSW | inactive
9 | LQCQN | 0.702 ± 0.4
10 | LQFNMVYVCYGWSSVYARSG | 0.409 ± 0.28
11 | LQFNSLAVLGVPGEMNEQTG | -0.228 ± 0.58
12 | LRCCRVN | -0.474 ± 0.42
13 | LRCRQKKYAAYRGTAVYWLL | -0.236 ± 0.76
14 | LRDTRAWVLN | -0.295 ± 0.43
15 | LRELSVCWPT | -0.153 ± 0.44
16 | LRISSFDMDNSVWFSRVYNY | 0.844 ± 0.26
17 | LRKPKIYVTNRPTQGYGSTA | 0.169 ± 0.55
18 | LRLCWLNQVRNKQGL | -0.481 ± 0.92
19 | LRLLSNVKWTKCS | 0.367 ± 0.97
20 | LRLRVTNVLILGSLGIDEMY | 2.37 ± 0.28
21 | LRPKWVAGDVLFQIYPWTRR | 0.629 ± 0.85
22 | LRPSPKVWHDFWGMM | 0.437 ± 0.47
23 | LRRFLPMALDDED | -0.676 ± 1.4
24 | LRRSTFASVDLRRADFIKLF | 0.165 ± 0.69
25 | LRRVMFHRGMCHSVVRNGFG | -1.48 ± 1.6

Row | Substance | amyloid nucleation score
26 | LRSRR | 1.41 ± 0.76
27 | LRTCFEQRENMIA | -0.229 ± 0.79
28 | LRTGQGHYDRVVGHRHNLCA | -1.42 ± 0.9
29 | LRVNIPVTQSSTVIHY | 0.91 ± 0.39
30 | LRWPFCQGLYTYLCSLT | 1.39 ± 0.47
31 | LRYFDLVATNHDNMIYDQYL | -0.177 ± 0.68
32 | LRYFGL | inactive
33 | LSAKLQFCITIEYALRVTKC | -0.106 ± 1.7
34 | LSALFLVPHYLDMVNLHSWR | -0.254 ± 0.44
35 | LSDWWKTSMFGYPVYSVVAR | 0.62 ± 0.36
36 | LSEEWTIYKFNRRRMKIGRG | 0.707 ± 0.4
37 | LSEIFSCENGVVGSNSETLT | -0.107 ± 0.35
38 | LSGVCRIFH | 0.584 ± 0.35
39 | LSHTTVRIDMGAAWRSLYSM | 2.36 ± 0.13
40 | LSIAHYGLNQSMSVRYREST | 0.771 ± 0.66
41 | LSKYGVCVALLCIWMGHNWC | 0.22 ± 0.2
42 | LSLCSLYNSWQGM | 0.492 ± 0.4
43 | LSMCYIFCDARYLYSQCFGV | 4.38 ± 0.12
44 | LSMGAHSGGPLQSY | -0.205 ± 1.1
45 | LSMGLR | 0.388 ± 0.68
46 | LSMGRYRPKRFLLRNTSDTL | -0.438 ± 0.44
47 | LSMNICSLNSSRYKPP | 2.79 ± 0.098
48 | LSMPMGNLEPL | -0.277 ± 0.19
49 | LSMSTFVKVCDVNAYPKGTA | 0.358 ± 1.1
50 | LSQAASNLLSRNLVPLSWLV | inactive

Row | Substance | amyloid nucleation score
51 | LSRLRLSAAGSADRESLVVS | 0.538 ± 0.5
52 | LSSCFPIDRSEDSDVYGYFK | -0.252 ± 0.49
53 | LSSGSKYFSKVVDASLVCAC | 0.377 ± 0.77
54 | LSSLGDLLLMNQPNAQRLTY | -0.746 ± 1
55 | LSTAWFGQNAHRCLGLVTLA | -0.005 ± 0.59
56 | LSVAHDGSLWVLFRKKPFGL | -0.106 ± 0.57
57 | LSVICMFTY | 4.74 ± 0.052
58 | LSVIFTLSFLTAIFAVGIWS | 0.301 ± 0.23
59 | LSWCLPCLSARSVRSRRMVT | 0.161 ± 0.25
60 | LSWFC | -0.504 ± 0.43
61 | LSWFPA | 0.179 ± 0.27
62 | LSYMSLFW | 1.94 ± 0.16
63 | LSYNTISGFIAYIIDMSPFV | inactive
64 | LTDLLMFIVPWDNAQRLVCF | 0.518 ± 0.89
65 | LTDPLCQTPFFYLFCRDAQE | -0.142 ± 0.4
66 | LTEDPGIRSSQR | 0.055 ± 1
67 | LTFCCIMYSIYHSQPDFCGL | 2.37 ± 0.099
68 | LTFLYLYWNFNIYGIYGTTI | 0.91 ± 0.19
69 | LTFRRRYRWGQGTCINFCRR | 0.082 ± 0.67
70 | LTFTLTDPDSHDANDKWPLH | -0.208 ± 0.66
71 | LTGASSNTSVLVNWGVASYC | 1.13 ± 0.62
72 | LTGLVMTVCFFWKARRF | 0.845 ± 0.86
73 | LTHCAWVAFDA | 1.7 ± 0.52
74 | LTPRRYIWTYLSWGDAGLEL | 1.02 ± 0.9
75 | LTRAWSGWYVTFMGGEILIR | -0.118 ± 0.49

Row | Substance | amyloid nucleation score
76 | LTSFSTDPISGLLAGCFSID | inactive
77 | LTSRNYESIY | -0.159 ± 0.24
78 | LTTYFHFMSMTEWAWRRRSK | 0.538 ± 0.29
79 | LVALDNAENFRSRKQWIGIR | -0.599 ± 1.2
80 | LVCDQLLIITLKCDERHQVT | 7.474 ± 0.074
81 | LVCFGFSNNCCELCCYYSNL | 0.765 ± 0.61
82 | LVFDGNLETCRQ | 0.164 ± 0.61
83 | LVGRSFSCEPRLYTFCEFCG | 2.61 ± 0.18
84 | LVITVYLYVRRDFCFAFGWL | -1.06 ± 1.2
85 | LVLSWSWICFL | 7.39 ± 0.059
86 | LVLVNSTWCTYPCGWMCEME | 0.488 ± 1.2
87 | LVMHVSWNVFIAVVLIFKDG | 0.375 ± 0.43
88 | LVMYCWRTYVYLRTSRGYDA | 0.259 ± 0.61
89 | LVNGTMFINPCYVQGRCKEM | 2.27 ± 0.12
90 | LVNRVKRCAMNVHLSIGGDR | -0.479 ± 0.44
91 | LVPPVFRP | -1.11 ± 1.1
92 | LVPWGSFFALA | -0.146 ± 0.97
93 | LVQVWLKN | 0.43 ± 0.34
94 | LVSQLSFACN | 0.92 ± 0.83
95 | LVVLSTVDA | -0.279 ± 0.67
96 | LVVNEFALVNKPDINFCLPQ | 4.56 ± 0.092
97 | LVWRFS | 1.56 ± 0.28
98 | LWDIFFRSLSVLAYNIKMFS | -0.552 ± 1
99 | LWFDYFPF | -0.096 ± 0.43
100 | LWFINVLNK | 5.103 ± 0.049

Row | Substance | amyloid nucleation score
101 | LWGIMYTM | -0.026 ± 0.93
102 | LWHFWGYGGALP | -0.738 ± 0.75
103 | LWLTFFSQ | 2.35 ± 0.11
104 | LWNLVLKCD | -0.215 ± 0.29
105 | LWRRWNCFT | inactive
106 | LWSLVCSELCWDVLFNALPG | -1.03 ± 0.71
107 | LWSVKEGWGRPEAGHRQLWG | -0.413 ± 0.52
108 | LWTLVQTASSTWALLTGTTN | -0.066 ± 0.65
109 | LWVNTDSSLECHRWLRVIV | 1.2 ± 0.37
110 | LYCMGVLPSLLAISMVWVRG | 2.94 ± 0.2
111 | LYDFINYG | -0.592 ± 1.2
112 | LYEAMPKTLAGIWSTPNMCV | -0.507 ± 0.93
113 | LYFVLPTNKLPDRSY | -0.403 ± 0.84
114 | LYFVSSAFSSQS | 0.014 ± 0.27
115 | LYGPQSPGRSPVSTFGRGRF | 0.321 ± 0.4
116 | LYHGVYPKFLYKLVVESSLS | -1.79 ± 1.7
117 | LYHSTLYLNVCYTYHSAGGN | 1.24 ± 0.21
118 | LYICPHYDYWLCEQYMHWSP | 0.69 ± 0.35
119 | LYKKICKALSYIMDLTRVLP | -1.54 ± 2.1
120 | LYLFDPTNQKRFEVWKWK | 0.063 ± 0.49
121 | LYLVILVELMVYSKWCIKSP | 0.414 ± 0.36
122 | LYMICGVYCLDSGIRTMRTF | 5.51 ± 0.067
123 | LYRFNF | 0.223 ± 0.45
124 | LYRRGTRPPG | -1.28 ± 2.4
125 | LYRVTYSNACMFGVVG | 0.695 ± 0.54

Row | Substance | amyloid nucleation score
126 | LYSCMRVVATATVSGGLVIE | -0.843 ± 0.69
127 | LYSLVGCWTLCLNVSCFEWL | 4.93 ± 0.064
128 | LYTIRTYPSLLKCDSPLN | -1.01 ± 0.78
129 | LYTNSLRF | -0.419 ± 0.64
130 | LYVHSFFRFMWSDKVLLSKT | 0.856 ± 0.56
131 | MACRSPEGLEYMKN | 0.209 ± 0.46
132 | MAGYL | -0.078 ± 0.48
133 | MAICSGMTSWAVLLEVWN | 0.504 ± 0.57
134 | MCNDGSYYAILACGVSLRVL | inactive
135 | MCPTLVLSA | inactive
136 | MCRLTPRIITDY | 0.244 ± 0.28
137 | MCSLYFLYGAGVSCGSVLNV | 0.063 ± 0.4
138 | MDCTFINGFRVFNLSNSR | 7.967 ± 0.059
139 | MDCWENVIRQKASSSGWLEN | -0.725 ± 0.52
140 | MDKLASLLSSKGCAIKGLRS | -2.19 ± 1.3
141 | MDLAYMFKLCIGVESM | inactive
142 | MDSCFVLAHVAGNRMVLWNA | 0.268 ± 0.43
143 | MDSTDWRVLLGRSMGWS | -0.596 ± 0.47
144 | MEGRVMGKRVAVY | -0.155 ± 0.59
145 | MEISLVINWSIIITKVCVCV | 0.497 ± 0.33
146 | MEPLVTQCRHKG | -1.31 ± 1.1
147 | MERTWFG | 0.276 ± 0.3
148 | MEYTYVQTSKYKHERNATWC | 0.008 ± 0.97
149 | MFGFHRNRDDHSCIHFTFK | 2.58 ± 0.15
150 | MFIASGV | -1.65 ± 0.84

Row | Substance | amyloid nucleation score
151 | MFNHV | 0.807 ± 1
152 | MFVNPALLLFL | 0.226 ± 1.6
153 | MFYLTFYNLRIND | 6.01 ± 0.061
154 | MFYSFNDVGWFAFRFSEIGV | -0.539 ± 0.41
155 | MGAWINYIAPTRYYLMDFFW | -1.7 ± 2.4
156 | MGFVGPENAKDYCSRGV | 0.357 ± 0.5
157 | MGGLRVYRPCVER | -0.437 ± 0.71
158 | MGHVLGVYKSP | 1.2 ± 0.46
159 | MGLGVRVEKSSCACG | 0.841 ± 0.37
160 | MGRLRARRSLVLVA | inactive
161 | MGTDRMCHS | 0.328 ± 0.97
162 | MGYRDNLSF | 0.915 ± 0.53
163 | MHGSGLHSDSLGPTV | 0.565 ± 0.69
164 | MHSPRGLE | 1.07 ± 0.79
165 | MHWLRGVRS | 0.082 ± 0.47
166 | MIFSHETSRVIGDPWGPWN | 0.056 ± 0.88
167 | MKIVNVHAWATQLARGDICE | 0.745 ± 0.83
168 | MKLRVDLFSYGRCLCEQ | -0.021 ± 0.25
169 | MKRDSFPLFNFCLA | 0.137 ± 0.5
170 | MKRTFRTLF | 0.57 ± 0.41
171 | MKRVWSYIAGKNARNLKGRL | 0.174 ± 0.41
172 | MKSALKALTEHSPQSYDWCR | -0.4 ± 0.61
173 | MLARKRMLNLLLRGWAYSWT | 0.09 ± 0.49
174 | MLDFTIQGLKSCWISVSLFF | inactive
175 | MLIRVISDVLPG | 0.224 ± 0.5
